The text below walks through data of the supplement of paper PMC9170038.

In the data set the test system is MS2 coat protein. As to the kind of experiment: apparent KD of MS2 coat protein; designed switch direction (-1 OFF switch, 1 ON switch): 1; higher = weaker reporter binding. A digest of the protocol:
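The apparent KD reported per design is the median over clusters of curve fits to normalised cluster fluorescence. The RNA switches were transcribed on Illumina chips by stalled E. coli RNA polymerase. SNAP-549-labelled MS2 coat protein was titrated from 0.7 or 1.5 nM, doubling up to 3 µM, in Tris-HCl pH 7.5 buffer containing KCl, MgCl2, BSA, DTT, tRNA and Tween-20, with no input, 200 uM small-molecule ligand, or an oligonucleotide input.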

[1] abbreviates: input ligand: microRNA oligo, concentration not stated.
Where [2] appears, read: Eterna round: R95, input ligand: FMN 200 uM.
Where [3] appears, read: Eterna round: R95, input ligand: microRNA oligo, concentration not stated.
Setting [4] is: Eterna round: R95, input ligand: none.

“AUUGCUAUCACAGGAUAUCAUGCGAAAAUCGCGUGAGAAGGGUGGACUCUGUCAUUCACGGAGGACAUGAGGAUCACCCAUGUC [SS NG10LRO16] (Eterna round: R96, puzzle: Same State NG 1)”: the “apparent KD of MS2 coat protein” value (input ligand: FMN 200 uM) is 363 nM, the “apparent KD of MS2 coat protein” value under setting [1] was determined as 18.9 nM and the “apparent KD of MS2 coat protein” value (input ligand: none) is 45.8 nM.
On the same counts, the results for “AUUGGGUAACGAGGAUAUCGUUUUUGUUUUUUUCGAGAAGGCGUUAUAGUUUCUUUCUAUUGUUACAUGAGGAUCACCCAUGUU [JR_SSNG1_Sub053] (Eterna round: R96, puzzle: Same State NG 1)” are 15.8 nM, 16.2 nM and 16.5 nM.
On the same counts, the results for “AUUGUUAAUGCAGGAUAUGAUUAACAUGAGGAUCACCCAUGUGGUGUUGUGAGUAAGGAGAGUGAUCAGAAGGGCAUUUUUUUU [JMF's solution 31] (Eterna round: R96, puzzle: Same State NG 2)” are 826 nM, 810 nM and 616 nM.
Consider “AUUUAACAAGCUUUUUGCUCGUCUUAUAAACAUGAGGAUCACCCAUGUAAUAGCGUGAGAGUAAAUAAUUUAAUAAU [JMF 98] (puzzle: Sensor for hsa-mir-208a)”, for which the “apparent KD of MS2 coat protein” value under setting [2] stood at 12.9 nM and the “apparent KD of MS2 coat protein” value under setting [3] amounted to 53.2 nM.
“AUUUUUAAUGCAGGAUAUGAUUAACAUGAGGAUCACCCAUGUGGUGUUGUGAGUAAGGAGAGUGAUCAGAAGGGCAUUUUUUUU [JMF's solution 30] (Eterna round: R96, puzzle: Same State NG 2)”: the “apparent KD of MS2 coat protein” value is, setting by setting: (input ligand: FMN 200 uM) 726 nM; under setting [1], 354 nM; (input ligand: none) 456 nM.
For the sequence “AUUUUUUAUGCAGGAUAUGAUUAACAUGAGGAUCACCCAUGUGGUGUUGUGAGUAAGGAGAGUGAUCAGAAGGGCAUUUUUUUU [JMF's solution 68] (Eterna round: R96, puzzle: Same State NG 2)”, the “apparent KD of MS2 coat protein” value by setting is: (input ligand: FMN 200 uM) 579 nM; under setting [1], 318 nM; (input ligand: none) 401 nM.
On the same counts, the results for “CACCAGAGAGCAGGAUAUGGGCCACGGCCUAAGGGCUGUGAACUCACAUGAGGAUCACCCAUGUCCCAGAAGGGCUCCUGGCUA [Getiised] (Eterna round: R96, puzzle: Same State NG 2)” are 98.3 nM, 602 nM and 842 nM.
For “CACGUCUCGGUAGGAUAUGAGGUGCCAUAGGGAACAGCCUAUGGACAUGAGGAUCACCCAUGUCCUCAGAAGGGCCGGACGUGA [Leonis] (Eterna round: R96, puzzle: Same State NG 2)”, the “apparent KD of MS2 coat protein” value was found to be 18.1 nM (input ligand: FMN 200 uM), 48.9 nM under setting [1] and 68.2 nM (input ligand: none).
On the same counts, the results for “CAUCGUUUGAUAGGAUAUCGCUAUACAUGAGGAUCACCCAUGUUUACCACGCUGGUUUUUCAUACCGAGAAGGAUUCUGAUGAC [salish99_SSNG02_r04_014] (Eterna round: R96, puzzle: Same State NG 2)” are 27.3 nM, 27.7 nM and 30.2 nM.
On to “CCAACGUACAAUUUAGAUCUACAUGAGGAUCACCCAUGUACGGAGGAUAUCAGCUCGAUUAGAGCUGAGAAGGCCGAAUUAAUU [SSNG3/2-A2] (Eterna round: R96, puzzle: Same State NG 3)”, for which the “apparent KD of MS2 coat protein” value (input ligand: FMN 200 uM) was 65.7 nM, the “apparent KD of MS2 coat protein” value under setting [1] was 119 nM and the “apparent KD of MS2 coat protein” value (input ligand: none) was determined as 430 nM.
On the same counts, the results for “CCAAUGUACAAUUUAGAUCUACAUGAGGAUCACCCAUGUACAGAGGAUAUCAGCUCGUUUAGAGCUGAGAAGGCUGAAUUAAUU [SSNG3/3-A3] (Eterna round: R96, puzzle: Same State NG 3)” are 111 nM, 139 nM and 327 nM.
The corresponding values for “CCCUCACAUGAGGAUCACCCAUGUCCUAGCAGGUCAGGAUAUAGCCCGCAUCCGCUGCGGCUAGAAGGGACAGCUG [JR_SS001_Sub610] (Eterna round: R96, puzzle: Same State 1)” are 148 nM, 135 nM and 176 nM.
Consider “CCGAUGCUUAUAAACAUGAGGAUCACCCAUGUGAGGACACAUGAGGAUAUGCAGGUCAAAGACUUGCAGAAGGCAUAGCGUCGG [JL SSNG3 3.89] (Eterna round: R96, puzzle: Same State NG 3)”, for which the “apparent KD of MS2 coat protein” value by setting is: (input ligand: FMN 200 uM) 40.7 nM; under setting [1], 158 nM; (input ligand: none) 305 nM.
On to “CCGUAGAUGGUAGGAUAUGGAGCCUUAUUGGCUCCAGAAGGAUCGAAAACAUGAGGAUCACCCAUGUCGGCGGUCAAUAGACCG [Eli NG1ss - 84] (Eterna round: R96, puzzle: Same State NG 1)”, for which the “apparent KD of MS2 coat protein” value runs as follows: (input ligand: FMN 200 uM) 21.8 nM; under setting [1], 43.1 nM; (input ligand: none) 34.1 nM.
As to “CGAUGAAACUAAGGAAGAAGAGUUGAAGUACAUGAGGAUCACCCAUGUCAGAGCUUUUUGCUCGUCAUGAACAGGAA [JR_SHM208a_Sub005] (puzzle: Sensor for hsa-mir-208a)”, the “apparent KD of MS2 coat protein” value is, setting by setting: under setting [2], 51.9 nM; under setting [3], 32.2 nM; under setting [4], 52.8 nM.
As to “CGCAAAGUGUGAGGAUAUUCACACAUGAGGAUCACCCAUGUGACGGUUCCGGCCAGAGGAGAGCAGGAGAAGGCACAACGCGAG [Eternabot solution 5] (Eterna round: R96, puzzle: Same State NG 2)”, the “apparent KD of MS2 coat protein” value runs as follows: (input ligand: FMN 200 uM) 36.1 nM; under setting [1], 101 nM; (input ligand: none) 120 nM.
The corresponding values for “CGCAGGCACGUAGGAUAUCUAGCGUGGGAGGCUAGAGAAGGAUGGAAUAACAUGAGGAUCACCCAUGUCGCCUCGCGGAAAUAA [Diorverire] (Eterna round: R96, puzzle: Same State NG 1)” are 15.5 nM, 17.4 nM and 32.8 nM.
The corresponding values for “CGGAAAAUCGUAGGAUAUCUAGGAUAUGAACGAGGAUCACCCGAGCAGCAUCAGCGCAUCAGAGGAGAGAAGGACGAUGAUGCG [pwkr ssNG2 2F5 2FMN.5] (Eterna round: R96, puzzle: Same State NG 2)” are 1930 nM, 1100 nM and 1510 nM.
On to “CGGGUAAUCGUAGGAUAUCUAGGAUAUGAACGAGGAUCACCCGAGCAGCAUCAGCGCAUCAGAGGAGAGAAGGACGAUGAUGCG [pwkr ssNG2 2F5 2FMN.18] (Eterna round: R96, puzzle: Same State NG 2)”, for which the “apparent KD of MS2 coat protein” value amounted to 164 nM (input ligand: FMN 200 uM), 199 nM under setting [1] and 470 nM (input ligand: none).
In the case of “CGGGUGAUCGUAGGAUAUCUAGGAUAUGAACGAGGAUCACCCGAGCAGCAUCAGCGCAUCAGAGGAGAGAAGGACGAUGAUGCG [pwkr ssNG2 2F5 2FMN.19] (Eterna round: R96, puzzle: Same State NG 2)”, the “apparent KD of MS2 coat protein” value is 20.5 nM (input ligand: FMN 200 uM), 21.7 nM under setting [1] and 34 nM (input ligand: none).
On the same counts, the results for “CGGGUGGUUCUAGGAUAUCUAGGAUAUGGACGAGGAUUACCCGAGCAGCAUCAGCGCACCAGAGGAGAGAAGGAGAGUCAUGCG [pwkr ssNG2 2F5 2FMN.9] (Eterna round: R96, puzzle: Same State NG 2)” are 105 nM, 72.5 nM and 86.8 nM.
Regarding “CGUCCAGCCUGAGCUGGACAAAAGCAUGUACAUGAGGAUCACCCAUGUUCAUGUACAAGCUUUUUGCUCGUCUUACU [salish99_208a_r3_092x] (puzzle: Sensor for hsa-mir-208a)”, the “apparent KD of MS2 coat protein” value by setting is: under setting [2], 590 nM; under setting [3], 15.7 nM; under setting [4], 793 nM.
On the same counts, the results for “CUAUCUACAGGUGUCAUUGCUCGUCUUAUACAUGAGGAUCACCCAUGUUAUAGCCCGGUGCUUGCGCUGGGCUGAUU [JL ViennaUCT Tearor mod 5] (puzzle: Sensor for hsa-mir-208a)” are 114 nM, 15.5 nM and 99.9 nM.
On the same counts, the results for “CUCAAAACAAGUUGCAGUGUUCGUCUUUAACAUGAGGAUCACCCAUGUAAUAGCCUGGUGGAAGCGCUCGGGCCACC [Qurabila] (puzzle: Sensor for hsa-mir-208a)” are 23.4 nM, 15.6 nM and 25.1 nM.
Regarding “CUCAACAACACAGGAUAUCCAGGGAAAAGACCUGGAGAAGGGUGACCAACAUGAGGAUCACCCAUGUGACGGCUAGACCGUCUG [Isquce] (Eterna round: R96, puzzle: Same State NG 1)”, the “apparent KD of MS2 coat protein” value runs as follows: (input ligand: FMN 200 uM) 593 nM; under setting [1], 24 nM; (input ligand: none) 249 nM.
Turning to “CUGAGCGAUCAAGGAUAUCACGUCGAUUAGACGUGAGAAGGUGAUCAUAACAUGAGGAUCACCCAUGUAUUACAUGAAGCUCAG [SSNG1/2-A2] (Eterna round: R96, puzzle: Same State NG 1)”, the “apparent KD of MS2 coat protein” value amounted to 386 nM (input ligand: FMN 200 uM), 146 nM under setting [1] and 1620 nM (input ligand: none).
On the same counts, the results for “CUGAGGAAGAGAGAGGAUAUCCAAAGGAAAACAUGAGGAUCACCCAUGUAAAAGGUAGGAAAUUGGGAGAAGGCUCAAGAGAGAG [salish99-ss2-068] (Eterna round: R96, puzzle: Same State 2)” are 32.3 nM, 38.3 nM and 39.3 nM.
